Results taken from paper PMC4930479 (Angiogenesis, 2016).

Target: the molecule itself
Experiment: SEC-MALS; inhibitor and ligand mixed at molar ratios 5:1 to 1:5 (20 µM and 100 µM), 12 h at ambient temperature; free proteins injected separately; Superose 12 10/300 GL, 10 mM phosphate, 500 mM NaCl, pH 7.0, 0.3 mL/min

B1: PlGF-2 (ligand, UniProt P49763-3 19-170, looked up)
chain: LPAVPPQQWALSAGNGSSEVEVVPFQEVWGRSYCRALERLVDVVSEYPSEVEHMFSPSCVSLLRCTGCCGDENLHCVPVETANVTMQLLKIRSGDRPSYVELTFSQHVRCECRPLREKMKPERRRPKGRGKRRREKQRPTDCHLCGDAVPRR
notes: PlGF-2, isoform of placental growth factor; Dimer (~42 kDa by SEC-MALLS); also called placental growth factor
stoichiometry N: 2
